The text below walks through data of publication PMC5913127.

Test [1] has as its target dimeric Aβ_(1-15) multi-antigen peptide (MAP). Put plainly: not stated; binding of antibody to branched multi-antigen peptides of Aβ1-15, EC50 (Fig. S5).
The target in another test is Aβ_(1-16) peptide (UniProt P05067). Description: MST.
Another test has as its target Aβ_(1-28) peptide. Description: SPR. On the technique in general: SPR reads the build-up and loss of mass on a sensor chip optically.
The target in test [2] is ^chaducanumab (murine chimeric IgG2a/kappa version of aducanumab) (human | murine). Put plainly: ELISA; antibody (5 μg/mL) captured on coated goat anti-mouse IgG Fcγ antibody; serially diluted monomeric biotin-conjugated Aβ1-40 in PBS with 1% BSA; HRP-streptavidin detection. A general note: ELISA stands for enzyme-linked immunosorbent assay.

Sequence of Aβ_(1-28) peptide (P05067 672-699): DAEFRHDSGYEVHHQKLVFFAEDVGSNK

Broadly, the EC50 is the midpoint of the concentration-response curve. As for “^chaducanumab (murine chimeric IgG2a/kappa version of aducanumab) (antibody)”, the EC50 in test [1] was greater than 1000 nM.

What is called Kd is a measure of binding affinity in units of concentration. High values mean a looser complex, low ones a tighter complex. Regarding chgantenerumab, the Kd with Aβ_(1-16) peptide came out at 96.6 nM; with Aβ_(1-28) peptide, 1300 nM. In turn, “biotin-conjugated Aβ_(1-40) (Aβ_(1-40)-Lys-Biotin), monomeric (peptide)” displayed an EC50 in test [2] greater than 1000 nM.
